Source: PMC2139968 (The Journal of Cell Biology, 1997)

Target: F-actin (rabbit, UniProt P68135 1-377)
Test: co-sedimentation

stoichiometry N: ~8 actin molecules per His6-neurabin molecule
B1: His6-neurabin (natural protein)
chain: not shown
